In data set [1] the target is ORCA-1 (Catharanthus roseus). As to the kind of experiment: cell_activity; within Str1 BH promoter, GUS/CAT, C. roseus cells.
The target of data set [2] is ORCA-2 (Catharanthus roseus). The description is as above.
ORCA-2 (Catharanthus roseus), sequence (chain, as listed by the source): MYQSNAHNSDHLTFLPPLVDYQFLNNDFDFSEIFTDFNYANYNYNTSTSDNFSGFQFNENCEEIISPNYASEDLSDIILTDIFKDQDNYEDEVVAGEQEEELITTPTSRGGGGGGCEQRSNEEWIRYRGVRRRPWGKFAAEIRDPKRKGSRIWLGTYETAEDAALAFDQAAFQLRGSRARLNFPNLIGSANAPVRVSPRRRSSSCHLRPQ

ORCA-1 (Catharanthus roseus), sequence (chain, as listed by the source): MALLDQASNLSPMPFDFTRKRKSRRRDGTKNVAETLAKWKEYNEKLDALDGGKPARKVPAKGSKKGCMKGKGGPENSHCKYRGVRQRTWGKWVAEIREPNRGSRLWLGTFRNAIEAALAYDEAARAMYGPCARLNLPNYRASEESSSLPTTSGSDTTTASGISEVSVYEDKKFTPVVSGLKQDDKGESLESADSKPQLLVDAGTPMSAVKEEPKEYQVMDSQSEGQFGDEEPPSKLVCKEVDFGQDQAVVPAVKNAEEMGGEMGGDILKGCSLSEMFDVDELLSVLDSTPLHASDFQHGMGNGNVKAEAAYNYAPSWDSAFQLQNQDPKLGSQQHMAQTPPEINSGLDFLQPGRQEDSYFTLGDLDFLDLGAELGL

B1: RV region of Str1 promoter (dsDNA)
DNA 1: GTACATCACTCTTAGACCGCCTTCTTTGAAAGTGATTTCCCTTGGACC
DNA 2: GGTCCAAGGGAAATCACTTTCAAAGAAGGCGGTCTAAGAGTGATGTAC
As to B1, the activity amounted to 1.6 fold induction in data set [1] and 3.3 fold induction in data set [2].

These data come from patent US7393946, “Method of modulating metabolite biosynthesis in recombinant cells” (Rijksuniversiteit Leiden).
